Laboratory results from IntAct's records for PubMed 23890821.

B1: Protein Vpu (Human immunodeficiency virus type 1 group M subtype B (isolate HXB2) (HIV-1)), P05919 (parent)
chain: MQPIPIVAIVALVVAIIIAIVVWSIVIIEYRKILRQRKIDRLIDRLIERAEDSGNESEGEISALVEMGVEMGHHAPWDVDDL

Variants of: B1
Conditions: with cd4_human CD4, P01730

| Variant | effect of a mutation on the interaction |
| --- | --- |
| I18F;V22F;V26L | decreasing interaction strength |
